From the supplement of paper PMC9170038

system: MS2 coat protein; test: apparent KD of MS2 coat protein; higher = weaker reporter binding; settings: Eterna round: R107; input ligand: arginine 13.2 mM
Protocol: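 RNA-MaP round R107: designed RNA switches with theophylline, tryptophan, arginine or FMN aptamers are transcribed on-chip within common flanks. They are titrated with SNAP-549-labelled MS2 coat protein in RNA-MaP buffer (100 mM Tris pH 7.5, 80 mM KCl, 4 mM MgCl2), without ligand or with the indicated ligand. Median apparent KD per design.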

“AGACAUGUAAGAUAAAUGACUUAUACAGAUACCAGACUGUCUAAUGUCCCUUGGCAGCUGCAUAACAUGAGGAUCACCCAUGUAA [JR_ExcTheophyA_Sub010]” and “UCUUUCUAUUGUGAUACCAGACGUACAUGAGGAUCACCCAUGUUUCAUUCUUGUUUUAAAGUCCCUUGGCAGCACUAUUUGUUCG [JR_Nu_ExcTheophyB_Sub028]” are within 1.5-fold of each other in “apparent KD of MS2 coat protein” value: 22.3 nM for the first, 19.6 nM for the second.

“UAUAUAUAACAUGAGGAUCACCCAUGUAAACGAGGACCGGUACGGCCGCCACUCGGCCGGCAAGGGAGAGGACGGGAAACCGUCG [ETA NP+V+V2 #26]” and “UACACAUGACAUGAUACCAGCCCAUGUGAACAUGAGGAUCACCCAUGUAUGAGGACAUGAGGCCCUUGGCAGCAUGUAUACAUGA [Same State Theophylline B 2]” are within 1.5-fold of each other in “apparent KD of MS2 coat protein” value: 12.1 nM for the first, 11.6 nM for the second.

“CUACAUUUGUAGAAACCGGUCAACAAUAAUCGAGGACCGGUACGGCCGCCACUCGAUGUGAAAUACACAUGAGGAUCACCCAUGU [Tryptophan A 13]” and “UCGCGAUAGAGAAGGAGCGUCAACACCACUUAACAUGAGGAUCACCCAUGUGUUACUUUGUGACAGGUAGGUCGCUCUAGCGCUU [JR_Nu_ExcArginiB_Sub026]” are within 1.5-fold of each other in “apparent KD of MS2 coat protein” value: 15.8 nM for the first, 21.1 nM for the second.

“GGAAACCAAAGCGAUACCAGCGUACAUGAAAAGAGCGAAAACAUGAGGAUCACCCAUGUACGCCCUUGGCAGCGCAAAACCAAGG” and “UGGGUACAUGAGGAUCACCCAUGUACUGAAGGAGCGAGAAUUAUCUCAGGUAGGUCGCAGACAUGAGGAUCACCCAUGUAGUGGG [Exclusion Arginine A GF 13]” are within 1.5-fold of each other in “apparent KD of MS2 coat protein” value: 21.4 nM for the first, 15 nM for the second.

Compared with “CCUAUGCAGUCGGCCGCCACUGUACAUGAGGAUCACCCAUGUUCCAAAAUAAAAGGAACUGAAAUCAGGACCGGGACUGUAUAGG [Ex Tryptophan B 1]”, “AGCUCGCAUCCUCUAGCGUCAAAGACGCGUCGAGGACCGGUACGGCCGCCACUCGACUUGAGGAACACCCAAGUCCUAGCGAGCA [TrypAX 12 #SwitchBubble #AlternativeMS2 #MS2Late #CuTurnoff]” is 2.1-fold higher in “apparent KD of MS2 coat protein” value: 29.4 nM for the first, 62.2 nM for the second.

“AAAUUAUCGGCGGCCGCCACUAGAGUUAGGCUUAUGUACUGGGUAACAUGAGGAUCACCCAUGUAUAGGACCGGGCCAUAAUAAA [Same State - Tryptophan B (Freestyle 4)]” and “UGAUACCAGUCGGCCGCCACUAUGCUAGAUACUAGCAAUAAAUGGGAACAUGAGGAUCACCCAUGUAGGACCGGGACUGGUAUCU” are within 1.5-fold of each other in “apparent KD of MS2 coat protein” value: 38.7 nM for the first, 32.1 nM for the second.

“GUUUUGGGAUCGGCCGCCACUACAUGAGGAUCACCCAUGUGGACAAAUAGGGUUUUUAAGCUCGGUAGGACCGGGAUUCGAACAU [Abeis]” and “UUUGAUUAGAGAAGGAGCGUGAUAUUUAUAUAGUGUGUAUGUACAUGAGGAUCACCCAUGUCACAGGUAGGUCGCUCUGAUAAGG [JR_Nu_ExcArginiB_Sub030]” are within 1.5-fold of each other in “apparent KD of MS2 coat protein” value: 15.4 nM for the first, 14.8 nM for the second.

Compared with “UUGGCACGGACGGCCGCCACUCUUUCACAUGAGGAUCACCCAUGUUAUCUAGUCCUCAGCAGAAAGAGGACCGGGUCGGAGUUGG [theeternabot_exclusion_MS2_Trp_B_13]”, “AUCCACAGCCGAAGGAGCGCAGUAGGAUGACAUGAGGAUCACCCAUGUGUGUGAUGUGGAUUGCAGGUAGGUCGCGGAGUGGAUU [Exclusion - Arginine B (Freestyle 9)]” is 2.2-fold higher in “apparent KD of MS2 coat protein” value: 75.1 nM for the first, 165 nM for the second.

Going from “UGUUAUGUGGGAAGGAGCGCAUACUUCACAUGAGGAUCACCCAUGUCAAGACGUGAGUCAGUGCAGGUAGGUCGCCUAGUUAAGA [Same State - Arginine B (Freestyle 17)]” to “AUUAUCGUAGGUUAAAGUUUAGAAACUGAAGGAGCGUGGUAUUACACAGGUAGGUCGCAGAUUUUACAUGAGGAUCACCCAUGUU [JR_ExcArginiA_Sub010]”, the “apparent KD of MS2 coat protein” value falls from 36 nM to 21.3 nM (1.7-fold).

Compared with “UACUUGCUGACGGCCGCCACUAGAACAUGAGGAUCACCCAUGUACCCGGUCCUAAUCCUCAUGACUAGGACCGGGUCAGCAAGAU [(Trp1)-(Ms2)-(T)'-(M)'-(Trp2)_Design2]”, “UUGAUUACCCAAGCGUGAUGGUCCUAGGAACGAGGACCGGUACGGCCGCCACUCGCAAGCAAACAUGAGGAUCACCCAUGUUUAU [theeternabot_exclusion_MS2_Trp_A_19]” is 2.4-fold lower in “apparent KD of MS2 coat protein” value: 26.4 nM for the first, 11.2 nM for the second.

Going from “CCGCCUGCCUCACAUGAGGAUCACCCAUGUCGAGGACCGGUACGGCCGCCACUCGUCGUCGGUAAUACAGGCAUUGAAUAAUAUA [Vetire]” to “CAUGAUAAGUUGGAUACCAGCAUAUGGAACAACAUGAGGAUCACCCAUGUCAAAUGACAUUGCCCUUGGCAGCCACCUACUGUCA [theeternabot_sameState_MS2_Theo_B_5]”, the “apparent KD of MS2 coat protein” value rises from 12.1 nM to 21.2 nM (1.8-fold).

Compared with “CCUCAAUCGUCGGCCGCCACUGGAUCAUGCGGAUACAUGAGGAUCACCCAUGUGGGUGUGGUACGCAGGACCGGGACAAGACCCG [#15 Same State - Tryptophan B]”, “CAUACUUUAGUAUGUUAUGUGGACAGUGAUACCAGAUACGAAAGUAUCCCUUGGCAGCACAACAUGAGGAUCACCCAUGUAUUUU [Theophylline A 4]” is 6.4-fold lower in “apparent KD of MS2 coat protein” value: 164 nM for the first, 25.8 nM for the second.

“AUUUUCAUGGUCAUAUAUAUAUCUUCAGAUACCAGACUAUAUUAAGUCCCUUGGCAGCUGUUACAUGAGGAUCACCCAUGUUAUA [JR_ExcTheophyA_Sub013]” and “UUAAUCUUAGAAGAAAACUUUUAAGCAGAAGGAGCGUGAUAAAACACAGGUAGGUCGCUGAAGGGAACAUGAGGAUCACCCAUGU [AstrosSSArgA#18]” are within 1.5-fold of each other in “apparent KD of MS2 coat protein” value: 40.1 nM for the first, 29.3 nM for the second.

Compared with “ACGCGCAGCAGAAGGAGCGUCUUAAUUCUACAUGAGGAUCACCCAUGUUUACAUUGGAUAUGACAGGUAGGUCGCUGGUGUGCGA [#06 Same State - Arginine B]”, “GGUCUCUGGAGCGAUACCAGCUUGAGUGUACUGGCCAGGUACAUGAGGAUCACCCAUGUAAGCCCUUGGCAGCGCUCCAGAGACC [#1 Exclusion - Theophylline B Attempt #15 (HarryS)]” is 1.7-fold lower in “apparent KD of MS2 coat protein” value: 15.9 nM for the first, 9.19 nM for the second.

Compared with “UGAUGGUUCGGAAGGAGCGUGUAAGAACAAGAACAUGAGGAUCACCCAUGUAUUAAUUUAACACAGGUAGGUCGCCGGGUUAUUG [11.J]”, “UAUCCACAUGAGGAUCACCCAUGUAGGGAAGGAGCGGUGAUUUCACCAGGUAGGUCGCCUUGCUGAGGGUUGCCGGUGGAAUCGU [Exclusion - Arginine A (Freestyle 33)]” is 1.7-fold lower in “apparent KD of MS2 coat protein” value: 20.9 nM for the first, 12.5 nM for the second.

First: CAUGAAGUAACUGAUACCAGUGUACACAUGAGGAUCACCCAUGUGUUGGGUUUUGUUGUACACCCUUGGCAGCAGAAUCUUUAUG [AstrosExyTheB#8]
Second: ACAUUUAACUGAAGGAGCGUGAUAAACAUGAGGAUCACCCAUGUACCACAGAUUUUCAGAUCACAGGUAGGUCGCAGACUAAUGA [JR_ExcArginiB_Sub014]
The “apparent KD of MS2 coat protein” value of the first is 4.6-fold higher: 42.4 nM for the first, 9.29 nM for the second.

First: GAUAUGGAAACAUGUCAGAUCCUUACCGGUCGAGGACCGGUACGGCCGCCACUCGAAAACGAGGAACAUGAGGAUCACCCAUGUA [Ex Tryptophan A 20]
Second: AAUAAGAGCUCGGAUACCAGCGAAAACAGGCACAUGAGGAUCACCCAUGUUAACGCACUGCGCCCUUGGCAGCCGCACGUGUGUC [theeternabot_sameState_MS2_Theo_B_39]
The “apparent KD of MS2 coat protein” value of the first is 1.7-fold higher: 32.7 nM for the first, 19.6 nM for the second.

Compared with “UGCACUCAUGCGGCCGCCACUGUCGGCCGCCACUAAACAUGAGGAUCACCCAUGUAGGACCGGGACAGGACCGGGCAUGGGUGCU [TryBS - #DoubleAptamer 2]”, “AACAUGAGGAUCACCCAUGUCCUCGUGAUUCGAGGACCGGUACGGCCGCCACUCGGUCCUCGCGAGGAGGAGUCAAAGACUCCAA [Omei Trp A SS A v1]” is 7.6-fold higher in “apparent KD of MS2 coat protein” value: 12.9 nM for the first, 98 nM for the second.

Compared with “UUAACGAGCUGAAGGAGCGCUCCUCAACAACAUGAGGAUCACCCAUGUACACAUAAUAGGGAGCAGGUAGGUCGCAGCAGGAUGG [ss-argB-?]”, “ACAUGAGGAUCACCCAUGUGCAGAACGGAUACCAGCGUGCUGGUACGCCCUUGGCAGCCGGACAUGAGGAUCACCCAUGUGUGGA [Exclusion Theophylline A GF28]” is 1.8-fold higher in “apparent KD of MS2 coat protein” value: 17.4 nM for the first, 32.1 nM for the second.

same assay, conditions: Eterna round: R107; input ligand: none

For “UAUAUAUAACAUGAGGAUCACCCAUGUAAACGAGGACCGGUACGGCCGCCACUCGGCCGGCAAGGGAGAGGACGGGAAACCGUCG [ETA NP+V+V2 #26]”, the “apparent KD of MS2 coat protein” value was 12.8 nM.
